# Source: the DeepSol protein solubility set
# Assay: soluble on expression in E. coli; label from the status in PepcDB or PDB records
row,Sequence,soluble on expression in E. coli
1,MMEENKRVLLGMSGGTDSSVAAMRLLEAGYEVTGVTFRFYELNDSTEYLEDARHLAERLGIRHITYDAREIFRKQIIEYFVHEYMVGHTPVPCTLCNNYLKWPLLSKIADEMGIFYIATGHYVRKVKVDDTCYITYAADSDKDQTFFLWGLKQDILRRMLLPMGDITKVEARAFAAERGFQKVAVKRDSLGVCFCPMDYRSFLKMWLVSNCQPQVSVGQPQVSAGQTWSAEVRRGRFVDEKGDFIAWHEGYPFYTVGQRRGLGIHLNRAVFVKEIRPEKNEVVLASLQALEKTEMLLKDWNIVNRERLLGHADIIVKIRYRKQENHCTVTVTLDNFLHVQLHEPLTAIASGQAAAFYKDGLLLGGGIIVE,not soluble
2,MEIIKISPRGYCYGVIDAMVIAKNASLDPNLPRPIHILGMIVHNKHVTDAFESIGIYTVDGANREEILDKITTGTVIFTAHGVSPSVKAKAVAKGLTTIDATCPDVLHTYNLILEKQAAGYEIIYIGKKGHPEPEGAYGTAPDVVHLVETKADIDALSLLSDKIFVTNQTTMSKWDVADLMHYIKGKFPKAIQHQEICMATQVRQEAVALQAKDADLTIVVGDPRSNNTARLAQVSIEKAGTKAYRIADITELDIEWIKDAKKVAVTAGASTPTQLVREVLLFLEQFDAADKTTWKREHNQDFERILPKTKNKYMAEKRSQRLAHLKNGGSLEHHHHHH,not soluble
3,MRPDAVMIFAAGFGTRMGALTATRPKPMIEVAGRPLIDHALALAEAAGISRIVANTHYLPESLTAHLAGRALVSHEEEILETGGGLCRALPLLGEGPVYTLNSDAVWTGENPLDELAAGWREGMEALLLLAPSGCAPGDFTMDAAGRLARARGAPGYTYLGAQILRTDRLAGVAEAKFSLNLVWDAMIAAGTAHGLIHRGGWCDVGRPEGIAAAEAMLANVLEHHHHHH,not soluble
4,MIQDKEVTLEYVSSLDFWYCKRCKANIGGHRSSCSFCKNPREVTEAKQELITYPQPQKTSIPAPLEKQPNQPLRPADKEPEPRKREEGQESRLGHQKREAERYLPPSRREGPTFRRDRERESWSGETRQDGESKTIMLKRIYRSTPPEVIVEVLEPYVRLTTANVRIIKNRTGPMGHTYGFIDLDSHAEALRVVKILQNLDPPFSIDGKMVAVNLATGKRRNDSGDHSDHMHYYQGKKYFRDRRGGGRNSDWSSDTNRQGQQSSSDCYIYDSATGYYYDPLAGTYYDPNTQQEVYVPQDPGLPEEEEIKEKKPTSQGKSSSKKEMSKRDGKEKKDRGVTRFQENASEGKAPAEDVFKKPLPPTVKKEESPPPPKVVNPLIGLLGEYGGDSDYEEEEEEEQTPPPQPRTAQPQKREEQTKKENEEDKLTDWNKLACLLCRRQFPNKEVLIKHQQLSDLHKQNLEIHRKIKQSEQELAYLERREREGKFKGRGNDRREKLQSFDSPERKRIKYSRETDSDRKLVDKEDIDTSSKGGCVQQATGWRKGTGLGYGHPGLASSEEAEGRMRGPSVGASGRTSKRQSNETYRDAVRRVMFARYKELD,not soluble
5,RVLEDLGWYVAHNIPPQIILELIDMCAREDSPVDKVAVVCDVRSREFRGSLTQVVSELRDKQLDPTVLFLEARDEVLIKRFDNVRRTHPLQGSQTLQVGIERERTVLSPVKEDASVVIDTSDLSVHDLRRAIESSFRTIATRTQHVTIESFGFKHGSPRDADFVVDVRFLPNPFWVPELRPFRGVDKPVSDYVLSQKGAEEFLNNFVDMLKDMLPGYRHEGKNFITIGVGCTGGHHRSVAVSEELAKRIADQTTLDVSVVHRDINRH,not soluble
6,GPWKGGRGRAASLLPLNRALGTTRPHKEGEVPGVDYIFITVEDFMELEKSGALLESGTYEDNYYGTPKPPAEPAPLLLNVTDQILPGATPSAEGKRKRNKSVSNMEKASIEPPEEEEEERPVVNGNGVVVTPESSEHEDKSAGASGEMPSQPYPAPVYSQPEELKEQMDDTKPTKPEDNEEPDPLPDNWEMAYTEKGEVYFIDHNTKTTSWLDPRLAKKAKPPEECKENELPYGWEKIDDPIYGTYYVDHINRRTQFENPVLEAKRKLQQHNMPHTELGTKPLQAPGFREKPLFTRDASQLKGTFLSTTLKKSNMGFGFTIIGGDEPDEFLQVKSVIPDGPAAQDGKMETGDVIVYINEVCVLGHTHADVVKLFQSVPIGQSVNLVLCRGYPLPFDPEDPANSMVPPLAIMERPPPVMVNGRHNYETYLEYISRTSQSVPDITDRPPHSLHSMPTDGQLDGTYPPPVHDDNVSMASSGATQAELMTLTIVKGAQGFGFTIADSPTGQRVKQILDIQGCPGLCEGDLIVEINQQNVQNLSHTEVVDILKDCPIGSETSLIIHRGGFFSPWKTPKPIMDRWENQGSPQTSLSAPAIPQNLPFPPALHRSSFPDSTEAFDPRKPDPYELYEKSRAIYESRRPDYKELDVHLRRMESGFGFRILGGDEPGQPILIGAVIAMGSADRDGRLHPGDELVYVDGIPVAGKTHRYVIDLMHHAARNGQVNLTVRRKVLCGGEPCPENGRSPGSVSTHHSSPRSDYATYTNSNHAAPSSNASPPEGFASHSLQTSDVVIHRKENEGFGFVIISSLNRPESGSTITVPHKIGRIIDGSPADRCAKLKVGDRILAVNGQSIINMPHADIVKLIKDAGLSVTLRIIPQEELNSPTSAPSSEKQSPMAQQSPLAQQSPLAQPSPATPNSPIAQPAPPQPLQLQGHENSYRSEVKARQDVKPDIRQPPFTDYRQPPLDYRQPPGGDYQQPPPLDYRQPPLLDYRQHSPDTRQYPLSDYRQPQDFDYFTVDMEKGAKGFGFSIRGGREYKMDLYVLRLAEDGPAIRNGRMRVGDQIIEINGESTRDMTHARAIELIKSGGRRVRLLLKRGTGQVPEYDEPAPWSSPAAAAPGLPEVGVSLDDGLAPFSPSHPAPPSDPSHQISPGPTWDIKREHDVRKPKELSACGQKKQRLGEQRERSASPQRAARPRLEEAPGGQGRPEAGRPASEARAPGLAAADAADAARAGGKEAPRAAAGSELCRREGPGAAPAFAGPGGGGSGALEAEGRAGARAGPRPGPRPPGGAPARKAAVAPGPWKVPGSDKLPSVLKPGASAASR,soluble
7,MGSDKIHHHHHHMAGVTAPLLGLQKKSLREQALSALRTAITSGELEPGRHLVETELSDMLQISRGTLREALRQLEQEGLLSAGPRGRLSVRHLDAKEIRDIYSVRAALESLAARTLCELPDRQHVIGSLRAAIGAMDAAAKGSLEDRIESDLEFHRTLCRLTGNETLLHSWESLEGSIRMSIMFAGLEKGVSNMSVDRHHDIVAAIETGDGSLARKTIREHMDTAADNLVA,not soluble
8,MIVFKAENLSVGYNGVKAVSNINFSAKQGEIICLLGPNGAGKTTIIRTLSGLLPPIEGEIHINGKSLSTINKKLLAQTLSVVLTEKPSFDVMTAFDVVSLGRFPHTGFFGTITKEHEIKVVEALKTVGALNLIDKYFHILSDGERQKVMLARALVQEPQIIILDEPTTHLDINHKIELLNTLKNLSRTAKLTVILSLHEIDLALKYCDKVMLVENKKVLSFGSPETTVNGETINKLYGIKNASFNPITSSIELKNSEKSNIYVIGGCGFGTPIYRLLSKYNLGFSTGILHENDIDYETAKTMSLRLQSEKPFQKISKISFEKALAAVASSDIIIDSGFPIGETNEKNLNLLNYAVEKNKRVITFRKYFNSTMSYCSNKDALIDFILRLEHHHHHH,not soluble
9,MGSSHHHHHHGGTGENLYFQGGSGPSSVAYVLGTESCGKTDLVHQLEYLTLGLVRTVPTACTPTTGQEVTKLNICSPAGKGKVTVEVRELGGSLVNTWESFIESRKARDGGSGDTSFLLIYVVDGVAPHQLPLASTMFRYLTQGRHAPCAGWPTLITVQKCASVNAITAEEVRSFFLDEVEAPANVDVVEVDSWNGIGTGDVLKGIEAVFGGLQ,not soluble
10,MDPLLTVLKERMRACQRRVSDRPRRQVVAIEWIDPPMASGNWIPELIALAGGENMLGTAGKHSPYIEWSTLLAIDPEVILVMPCGFDLERTRQELDQALQTYPQWQQLRALQTGQLYILDGNAYFNRPGPRLVDSLEILVEILHPCPLEHHHHHH,soluble
11,RVDADNTALVDLWERSVRATHDFLSEADIVELYPQVRDLYLPAVEVWVLVDDDGVAQGFIGLNQAHVEMLFVEPGLRGRGIGRRLLDHARATWPRLSVDVNEQNPQACGFYRHYGFRQTGRSATDSAGRPFPLLHMSL,not soluble
12,MQHAKIFFVIASVKFLMILSIHNYTQMSKTCKLRTVARKTVMEFEGVEDFIVPFVNYTKRFMVAPDKKLISCTLRKSMSQLAENIMCLLYDEQQYFANSQSLNDTWKDERKCEHDRSYLNPSETLLNDTDTVRFAFIRDPFQRFISFYLDKCVREQKCYNCGNNMTCVLKNFYWGLKKVQRRWDGREQPEYVEIHAAPLSWNCDFYKDLSKWQLIPIGSDKTERSSAITQTEKILRKQRVNETLVDMVVDGMKDGDTDHSTYKSAHRLEAERQIREDPYIREMLHKIYYFDYVVFPFNRDSLDLKFQDTSCTIPLP,not soluble
13,MAHHHHHHMYADDLSIIVKGQSREDAIPTANMVLKKLHAWSQENGLAISPSKCEAAWFTLSTHTESDYDREGKRPLVVAGCEIPVMTMGASRTTKLLGMDLDPRLTLNVAASKQCAASSQRISQLRCIAHKEAGPSPHDLRMFVIGYGASKLRYGSELIWAVATDSAKNEMQKTYATLARIVSGVPSTVDPESALLEANMPPLHVLCLRARLSIFENTRACQMDWMRRPPPEPPPRAVFRISPLSRDELYAFVDAYTKEYGITQSSPREERFFRSSIPPWFAASAHRVTIGVELPTDHSITEEQLIREKRRVSEEALALHSHRSWILAKSGGVDVPKSAGVGILLSSLNSSEIIEKASINCGARPCSYRTESRALLLALERLIIPRIQHRHETLLVVADSQSLLAALNKGPLSQTDWTEDQIWQRLLTLTCAGWSVRLQFFTDIVEYMLTSLRISMRRRLWRLDNTRSMESHIYGIRIC,not soluble
14,MSLTAPRTPGTPRTPRTEHLVLPGVLTAAEAAATVRGILAVQREDGAIPWFRGHHLDPWDHVEAAMALDTADEHEAAERAYAWLARHQNQDGSWYAAYADGDFADVTDRGRETNFVAYVAVGVWHHYLATGDDLFLERMWPVVHAAVEFVLRLQQPGGQIGWRRGDDGTDTTDALLTGSSSVHHALRCALAIAEQREEPQPDWELAAGALRHAIRRHPERFLDKGRYSMDWYYPVLGGALTGTEARSRIQESWDRFVVPGLGVRCVVPNPWVTGGESAELALALWAVGESDHALEILQSIQHLRDPDSGLYWTGYVFEDETVWPRELTAWTAGSLLLAVAALGGHEATCQVFAGERLPRGLDPDCCVEGHHHHHH,soluble
15,MVNEYKRIVLLRGLECINKHYFSLFKSLLARDLNLERDNQEQYTTIQIANMMEEKFPADSGLGKLIEFCEEVPALRKRAEILKKERSEGETSLEKNGQEAGPATPTSTTSHMLASERGETSATQEETSTAQAGTSTAQAGTSTAQAGTSTA,soluble
16,MAVCGLGSRLGLGSRLGLRGCFGAARLLYPRFQSRGPQGVEDGDRPQPSSKTPRIPKIYTKTGDKGFSSTFTGERRPKDDQVFEAVGTTDELSSAIGFALELVTEKGHTFAEELQKIQCTLQDVGSALATPCSSAREAHLKYTTFKAGPILELEQWIDKYTSQLPPLTAFILPSGGKISSALHFCRAVCRRAERRVVPLVQMGETDANVAKFLNRLSDYLFTLARYAAMKEGNQEKIYMKNDPSAESEGL,not soluble
17,GAMDSSEMSTICDKTLNPSFCLKFLNTKFASPNLQALAKTTLDSTQARATQTLKKLQSIIDGGVDPRSKLAYRSCVDEYESAIGNLEEAFEHLASGDGMGMNMKVSAALDGADTCLDDVKRLRSVDSSVVNNSKTIKNLCGIALVISNMLPRN,soluble
